{
  "source": "patent US20180362616A1",
  "about": "“VARIANTS OF AMYLOID beta-PROTEIN PRECURSOR INHIBITOR DOMAIN” (THE NATIONAL INSTITUTE FOR BIOTECHNOLOGY IN THE NEGEV LTD., priority 2015, published 2018)",
  "key": {"AGS cells": {"test_system": "AGS cells", "experiment": "XTT proliferation assay", "assay_type": "cell-based", "details": "100 nM, 1 μM, 10 μM, 48 hours", "procedure": "(§1) The effect of an APPI variant (SEQ ID NO: 13) on proliferation of gastric cancer cells was evaluated by XTT assay. AGS, HCT-116 and SW-480 cells were plated into 96-well plates in 9600 cells/well in duplicate, and allowed to adhere for 4 hours. Each well was supplemented with 100 nM, 1 μM, or 10 μM […] (SEQ ID NO: 13) or a vehicle (50 mM Tris-HCl, 100 mM NaCl, Ph 7.3), and cells were incubated for 48 hours. Proliferation was measured by XTT following the manufacturer instructions (Biological Industries, Ill.)."}, "SW-480 cells": {"test_system": "SW-480 cells", "experiment": "XTT proliferation assay", "assay_type": "cell-based", "details": "100 nM, 1 μM, 10 μM, 48 hours", "procedure": "as §1"}, "HCT-116 cells": {"test_system": "HCT-116 cells", "experiment": "XTT proliferation assay", "assay_type": "cell-based", "details": "100 nM, 1 μM, 10 μM, 48 hours", "procedure": "as §1"}, "mesotrypsin [1]": {"target": "T1, mesotrypsin (Homo sapiens, UniProt P35030)", "T1 sequence (P35030 81-304 limits assumed)": "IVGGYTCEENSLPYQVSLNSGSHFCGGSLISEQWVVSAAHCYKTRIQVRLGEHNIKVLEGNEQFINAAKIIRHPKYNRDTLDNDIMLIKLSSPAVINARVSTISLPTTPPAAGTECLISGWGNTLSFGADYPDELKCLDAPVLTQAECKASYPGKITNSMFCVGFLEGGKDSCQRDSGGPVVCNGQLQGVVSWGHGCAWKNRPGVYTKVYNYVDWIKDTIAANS", "experiment": "Mesotrypsin inhibition, cleavage of Z-GPR-pNA", "assay_type": "biochemical", "design": "made in house"}, "hK6 [2]": {"target": "T2, hK6 (Homo sapiens, UniProt Q92876)", "experiment": "Surface plasmon resonance, APPI on nickel chip, hK6 analyte", "assay_type": "binding", "details": "SPR", "experimental": "APPIs were immobilized to a SPR nickel chip via the proteins His tag, and hK6 protein served as the analyte. The experiment was conducted at 25° C. APPI concentrations were 0.6125 nM, 1.25 nM, 2.5 nM, 5 nM, and 10 nM.\nTo this end, APPIs were mounted on a surface Plasmon resonance (SPR) nickel chip by their His tag, and hK6 molecules served as the analyte."}, "AGS gastric cancer cells": {"test_system": "AGS gastric cancer cells", "experiment": "Matrigel ThinCerts invasion assay", "assay_type": "cell-based", "procedure": "The effects of […] (SEQ ID NO: 13) on the invasive behavior of AGS gastric cancer cells was examined. For invasion assays AGS cells were plated in the top chamber of a Matrigel coated […] (Greiner Bio-One, Germany), with an 8 μm pored membrane in 160 μl serum-free Ham's F-12 medium, in triplicate. 1 uM-10 uM of APPI (SEQ ID NO: 13) or a vehicle (50 mM Tris-HCl, 100 mM NaCl, Ph 7.3) in 40 μl were added to each insert. Next, the inserts were placed into the bottom chamber wells of a 24-well plate containing Ham's F-12 with 10% FBS as a chemo-attractant. After 48 hours of incubation, cells remaining on the inserts' top layers were removed by cotton swab scrubbing; Cells on the lower surface of the membrane were fixed in 100%/methanol and stained with Romanowski stain solutions. The cell numbers in 10 random fields (×20) were counted for each chamber and the average value was calculated."}, "hK6 [3]": {"target": "T2, hK6", "experiment": "YSD binding of 50 nM hK6 in presence of active-site small molecule", "procedure": "Next, different concentrations of the polypeptides having SEQ ID Nos: 8, 13, and 14 were tested for their ability to bind 50 nM hK6 in the presence of a small molecule which target and home the serine residue in the active pocket of hK6."}, "mesotrypsin [4]": {"target": "T1, mesotrypsin", "experiment": "Hydrolysis of APPI variants by mesotrypsin, HPLC time course", "assay_type": "biochemical", "design": "made in house"}, "mesotrypsin [5]": {"target": "T1, mesotrypsin", "details": "literature (Knecht et al. 2007; Radisky et al. 2003); cited from earlier work"}},
  "note": "“Also recorded” adds a separate entry of the source. Read-outs that look alike come from different tables or passages of the source.",
  "data": [
    {"substance": "SEQ ID NO: 13: APPI variant, EVCSEQAETGPCRALFFRWYFDVTEGKCAPFVYGGCGGNRNNFDTEEYCMAVCGSAI", "values": [
      {"measurement": "proliferation (XTT)", "setting": "AGS cells", "value": "did not inhibit proliferation"},
      {"measurement": "proliferation (XTT)", "setting": "SW-480 cells", "value": "did not inhibit proliferation"},
      {"measurement": "proliferation (XTT)", "setting": "HCT-116 cells", "value": "did not inhibit proliferation"},
      {"measurement": "Ki", "setting": "mesotrypsin [1]; Example 10, read-out: Ki (mesotrypsin activity)", "value": 5.38, "unit": "nM"},
      {"measurement": "Kd", "setting": "hK6 [2]; 25° C.", "value": 0.351, "unit": "nM"},
      {"measurement": "improvement in binding to hK6", "setting": "hK6 [2]; compared to APPI WT", "value": 22.5, "unit": "folds"},
      {"measurement": "invasive cells per field", "setting": "AGS gastric cancer cells; 10 μM APPI (b288 prints 10M), 48 hours", "value": "1.46±0.48", "unit": "cells/field"},
      {"measurement": "invasion capacity reduced", "setting": "AGS gastric cancer cells; 10 μM APPI (b288 prints 10M), 48 hours, vs vehicle", "value": 77, "unit": "%"},
      {"measurement": "transmembrane invasion", "setting": "AGS gastric cancer cells; compared with vehicle", "value": "significantly lower transmembrane invasion capacity; also recorded: inhibits cell invasion"},
      {"measurement": "binding to hK6 compared with SEQ ID NO: 8", "setting": "hK6 [3]; 50 nM hK6, yeast display", "value": "higher binding"},
      {"measurement": "binding to hK6 in presence of small molecule", "setting": "hK6 [3]; high concentrations of small molecule targeting active-site Ser of hK6", "value": "diminished"}
    ]},
    {"substance": "APPIT11C/M17G/I18F/F34C: APPI variant, EVCSEQAECGPCRAGFSRWYFDVTEGKCAPFCYGGCGGNRNNFDTEEYCMAVCGSAI", "values": [
      {"measurement": "Ki", "setting": "mesotrypsin [1]; Table 4, read-out: Ki", "value": 149, "unit": "nM"},
      {"measurement": "Kcat", "setting": "mesotrypsin [4]; Table 4", "value": 0.00521, "unit": "s⁻¹"},
      {"measurement": "turnover time", "setting": "mesotrypsin [4]; Table 4", "value": 192.21, "unit": "s"},
      {"measurement": "Turnover time (fold)", "setting": "mesotrypsin [4]; proteolytic stability relative to APPI-WT", "value": "around 2 fold"}
    ]},
    {"substance": "bovine pancreatic trypsin inhibitor [BPTI]", "values": [
      {"measurement": "proteolytic stability toward mesotrypsin", "setting": "mesotrypsin [5]", "value": "the more stable of the two"}
    ]}
  ]
}
